Changes are numbered by the printed parent chain. Numbers in names are those of the source. Values belong to the binder of their own block, whether it stands above or below them.
Key:
[1] = biological target: T1, full-length human C1s (produced in house) (human, UniProt P09871 16-688); test: BLI (Octet RED96e), antibody on AHC biosensor; C1s Species: Human; R^2 0.9999
T1 construct: Called full-length; Partly auto-cleaved at R422-I423 on blots; also called HuC1s; Hu C1s
T1 sequence: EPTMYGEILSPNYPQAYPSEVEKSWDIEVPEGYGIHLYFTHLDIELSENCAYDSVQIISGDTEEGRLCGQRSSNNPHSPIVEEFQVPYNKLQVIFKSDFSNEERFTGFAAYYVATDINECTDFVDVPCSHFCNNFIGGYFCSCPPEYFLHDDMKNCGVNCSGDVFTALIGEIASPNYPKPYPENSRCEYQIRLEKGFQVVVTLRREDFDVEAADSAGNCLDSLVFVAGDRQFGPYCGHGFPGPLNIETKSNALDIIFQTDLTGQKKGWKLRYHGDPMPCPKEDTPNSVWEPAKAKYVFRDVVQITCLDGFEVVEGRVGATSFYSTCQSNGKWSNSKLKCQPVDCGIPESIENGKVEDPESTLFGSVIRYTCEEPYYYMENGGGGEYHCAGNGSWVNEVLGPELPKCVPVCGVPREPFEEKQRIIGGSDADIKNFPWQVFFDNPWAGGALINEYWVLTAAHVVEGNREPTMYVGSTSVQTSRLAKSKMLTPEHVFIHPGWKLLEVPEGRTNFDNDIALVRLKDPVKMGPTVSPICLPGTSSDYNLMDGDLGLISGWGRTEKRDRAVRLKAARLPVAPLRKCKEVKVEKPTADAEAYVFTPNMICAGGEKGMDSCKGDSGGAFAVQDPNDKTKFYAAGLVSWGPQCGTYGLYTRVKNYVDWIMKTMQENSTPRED
Excerpt: At last, analyte was dissociated in 1×KB for 360 sec. Data analysis was done using OCTET® Data Analysis HT Software (Sartorius AG).

[2] = biological target: T2, human C1s mutant M5 (K336G) (human, UniProt P09871 16-688); test: ELISA, plate coated with human C1s mutant M5: K336G, OD450nm; curve still rising at 1000 ng/ml, no upper plateau in the range
T2 construct: The entry is the mutant itself
T2 sequence: T1 sequence with K336G
Procedure: ELISA was carried out by first coating 96-well plates with 200 ng/well of full-length or truncated C1s proteins overnight. The next morning, plates were blocked with SuperBlock T20 blocking buffer (Thermo Scientific 37536) for 1 h with gentle shaking. Then, various concentrations of anti-C1s antibodies diluted in SuperBlock T20 blocking buffer were added to the plates and incubated for 1 h with gentle shaking. Mouse IgG (Sigma-Aldrich 15381) and human IgG1 (BioXCell BP0297) were used as negative controls. The plates were washed before incubating with HRP conjugated secondary antibodies diluted in SuperBlock T20 blocking buffer (goat anti-mouse IgG (H+L) cross-adsorbed secondary antibody HRP (Invitrogen G-21040) or goat anti-human IgG antibody, HRP conjugate (Millipore AP309P)) for 1 h with gentle shaking. At last, the plates were washed and color developed with ELISA liquid HRP substrate (Sigma-Aldrich), followed by stopping the reaction with addition of 1M H₂SO₄ in the same volume as the ELISA liquid substrate. Bound antibody was measured by absorbance at OD₄₅₀ₙₘ.
Binding of anti-C1s antibodies to mutants M1-M20 of human C1s was measured by ELISA as described in Example 4, and results are shown in FIGS. 6B-6U. […]

- Kd [1]: 0.12 nM
- koff [1]: 4.6e-05 s⁻¹
- kon [1]: 390000 M⁻¹ s⁻¹
B1: Anti-C1s antibody hz2-7(H1L2) (antibody, V domains shown)
VH: EVQLLESGGGLVQPGGSLRLSCAASGFTFSNYFMNWVRQAPGKGLEWVSEIRLKFTNYATHYADSVKGRFTISRDDSKSTLYLQMNSLRAEDTAVYYCTRDYGSRNGYFDYWGQGTLVTVSS
VL: DIVMTQTPLSLPVTPGEPASISCRSSKSLLHSNGNTFLYWFLQKPGQSPQLLIYRMSNLASGVPDRFSGSGSGTDFTLKISRVEAEDVGVYYCMQHLEYPYTFGGGTKLEIKR
notes: Humanized, human IgG1 / kappa; also called hz2-7(1L2)

- EC50 [2]: 0.468 µg/mL
B2: Anti-C1s antibody hz2-8 (H1L2 G80A/T82A) (antibody, V domains shown)
VH: QVQLVQSGAEVKKPGASVKVSCKASGFNIKEYYMHWVRQAPEQGLEWMGWIDPENADAIYAQKFQGRVTITADTSTNTAYMELSSLRSEDTAVYYCARSRLFFAYWGQGTLVTVSS
VL: DIQMTQSPKSLSASVGDRVTITCRASQDVRTALDWYQQKPGQSPKLLIYSASYRYSGVPSRFSGSGSGTDFTLTISSLQPEDFATYYCQQQYTTPYTFGQGTKLEIKR
notes: Humanized variant with G80A and T82A in HC CDR2 (already in the entry), human IgG1 / kappa
